{"source": "patent US20120316071A1", "about": "(published 2012)", "binders": {"B1": {"name": "Fab VH1-46_IGHD6-6*01_IGHJ1*01 S102A/S103P/S104F (APF) & L6_IGKJ1*01 (Fab, V domains shown)", "VH": "QVQLVQSGAEVKKPGASVKVSCKASGYTFTSYYMHWVRQAPGQGLEWMGIINPSGGSTSYAQKFQGRVTMTRDTSTSTVYMELSSLRSEDTAVYYCAREEYAPFSAEYFQHWGQGTLVTVSS", "VL": "not shown", "notes": "Tested as a Fab made in E. coli; also called H:APF & L:wt; APF triple mutant"}, "B2": {"name": "Fab VH1-46_IGHD6-6*01_IGHJ1*01 & L6_IGKJ1*01 (Fab, V domains shown)", "VH": "B1 VH with A102S, P103S, F104S", "VL": "not shown", "notes": "Only variable domains are tied to the molecule; Tested as a Fab made in E. coli: heavy chain from Plasmid A (CH1 constant region, His6 and Flag tags), kappa light chain from Plasmid C (kappa CL); also called parent Hit Fab against DLL4; VH1-46_IGHD6-6*01_IGHJ1*01 & L6_IGKJ1*01 (parental)"}, "B3": {"name": "Fab VH6-1_IGHD3-3*01_IGHJ4*01 & V4-3_IGLJ4*01 (Fab, V domains shown)", "VH": "QVQLQQSGPGLVKPSQTLSLTCAISGDSVSSNSAAWNWIRQSPSRGLEWLGRTYYRSKWYNDYAVSVKSRITINPDTSKNQFSLQLNSVTPEDTAVYYCAREYYDFWSGYYTDYFDYWGQGTLVTVSS", "VL": "QPVLTQPTSLSASPGASARLTCTLRSGINLGSYRIFWYQQKPESPPRYLLSYYSDSSKHQGSGVPSRFSGSKDASSNAGILVISGLQSEDEADYYCMIWHSSASFVFGGGTQLIIL", "notes": "Tested as a purified germline Fab made in E. coli; The VH was cloned into plasmid A (CH1 constant region, His6 and Flag tags) and the lambda VL into plasmid E (lambda CL)"}, "B4": {"name": "Fab VH5-51_IGHD5-18*01>3_IGHJ4*01 G100K/G104T & V3-4_IGLJ1*01 (Fab, V domains shown)", "VH": "EVQLVQSGAEVKKPGESLKISCKGSGYSFTSYWIGWVRQMPGKGLEWMGIIYPGDSDTRYSPSFQGQVTISADKSISTAYLQWSSLKASDTAMYYCARRKYSYTYDYFDYWGQGTLVTVSS", "VL": "QTVVTQEPSFSVSPGGTVTLTCGLSSGSVSTSYYPSWYQQTPGQAPRTLIYSTNTRSSGVPDRFSGSILGNKAALTITGAQADDESDYYCVLYMGSGISYVFGTGTKVTVL", "notes": "Tested as a Fab; The constant parts are the same as for the parent Fab (CH1 with His6/Flag tags, lambda CL); also called KT double mutant; H:KT"}}, "key": {"[1]": {"target": "T1, rHuman Erythropoietin R/Fc Chimera, CF (R&D Systems Cat#963-ER) (human, UniProt P19235 25-250)", "T1 construct": "Bought reagent; also called EPO R; EPO R/Fc; Fc part of the bought chimera not given", "T1 sequence (looked up)": "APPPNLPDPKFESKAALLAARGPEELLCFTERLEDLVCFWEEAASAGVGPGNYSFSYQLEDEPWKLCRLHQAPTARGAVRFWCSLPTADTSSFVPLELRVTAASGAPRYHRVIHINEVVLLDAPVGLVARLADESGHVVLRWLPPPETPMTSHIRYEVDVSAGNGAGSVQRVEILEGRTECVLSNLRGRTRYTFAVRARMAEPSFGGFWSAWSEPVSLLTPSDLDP", "experiment": "ECL Multispot (MSD) assay, antigen spotted on plate, 10 nM Fab; blank spot of this row 487"}, "[2]": {"target": "T2, rHuman CD44/Fc Chimera, CF (R&D Systems Cat#3660-CD) (human, UniProt P16070 21-220)", "T2 construct": "Bought reagent; Fc part of the bought chimera not given", "experiment": "ECL Multispot (MSD) assay, antigen spotted on plate, 10 nM Fab; blank spot of this row 487"}, "[3]": {"target": "T3, rHuman P-Cadherin/Fc Chimera, CF (R&D Systems Cat#861-PC) (human, UniProt P22223 108-654)", "T3 construct": "Bought reagent; Fc part of the bought chimera not given", "experiment": "ECL Multispot (MSD) assay, antigen spotted on plate, 10 nM Fab; blank spot of this row 487"}, "[4]": {"target": "T4, rHuman IGF-1 sR, CF (R&D Systems Cat#391-GR) (human, UniProt P08069 31-932)", "T4 construct": "Bought soluble receptor; The column head prints only 'IGF-1'; also called insulin-like growth factor-1 soluble receptor", "experiment": "ECL Multispot (MSD) assay, antigen spotted on plate, 10 nM Fab; blank spot of this row 487"}, "[5]": {"target": "T5, rHuman Notch-1/Fc Chimera, CF (R&D Systems Cat#3647-TK) (human, UniProt P46531 19-526)", "T5 construct": "Bought reagent; Fc part of the bought chimera not given", "experiment": "ECL Multispot (MSD) assay, antigen spotted on plate, 10 nM Fab; blank spot of this row 487"}, "[6]": {"target": "T6, rHuman EGF R/Fc Chimera, CF (R&D Systems Cat#344-ER) (human, UniProt P00533 25-645)", "T6 construct": "Bought reagent; also called epidermal growth factor receptor; Fc part of the bought chimera not given", "experiment": "ECL Multispot (MSD) assay, antigen spotted on plate, 10 nM Fab; blank spot of this row 487"}, "[7]": {"target": "T7, rHuman HGF R/c-MET/Fc Chimera, CF (R&D Systems Cat#358-MT/CF) (human, UniProt P08581 25-932)", "T7 construct": "Bought reagent; also called HGF R/Fc; hepatocyte growth factor receptor; Fc part of the bought chimera not given", "T7 sequence (P08581 25-932, change not shown)": "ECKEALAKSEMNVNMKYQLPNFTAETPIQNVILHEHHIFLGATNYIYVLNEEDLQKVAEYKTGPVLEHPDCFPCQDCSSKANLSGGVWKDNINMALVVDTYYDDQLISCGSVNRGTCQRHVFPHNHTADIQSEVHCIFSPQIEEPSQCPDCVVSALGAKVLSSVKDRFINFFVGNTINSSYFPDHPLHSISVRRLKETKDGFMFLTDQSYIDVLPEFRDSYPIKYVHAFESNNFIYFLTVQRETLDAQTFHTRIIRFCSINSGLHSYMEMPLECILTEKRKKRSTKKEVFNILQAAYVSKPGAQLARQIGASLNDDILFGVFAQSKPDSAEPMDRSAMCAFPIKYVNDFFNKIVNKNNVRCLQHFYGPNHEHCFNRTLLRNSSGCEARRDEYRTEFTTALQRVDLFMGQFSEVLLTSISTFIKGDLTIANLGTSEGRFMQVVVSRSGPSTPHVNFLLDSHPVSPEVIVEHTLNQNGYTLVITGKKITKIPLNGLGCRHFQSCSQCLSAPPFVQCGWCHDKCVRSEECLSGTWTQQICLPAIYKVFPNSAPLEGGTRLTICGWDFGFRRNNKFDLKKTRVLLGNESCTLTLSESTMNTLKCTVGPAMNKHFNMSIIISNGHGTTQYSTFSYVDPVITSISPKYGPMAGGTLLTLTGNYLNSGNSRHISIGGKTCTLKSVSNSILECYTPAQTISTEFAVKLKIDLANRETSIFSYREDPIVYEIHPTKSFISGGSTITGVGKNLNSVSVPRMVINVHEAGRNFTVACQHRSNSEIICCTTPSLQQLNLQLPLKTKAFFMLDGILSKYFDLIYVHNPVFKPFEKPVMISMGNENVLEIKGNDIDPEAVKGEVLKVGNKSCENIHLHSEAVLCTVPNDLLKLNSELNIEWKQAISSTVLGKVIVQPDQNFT", "experiment": "ECL Multispot (MSD) assay, antigen spotted on plate, 10 nM Fab; blank spot of this row 487"}, "[8]": {"target": "T8, rHuman ErbB2/Fc Chimera, CF (R&D Systems Cat#1129-ER) (human, UniProt P04626 23-652)", "T8 construct": "Bought reagent; also called human epidermal growth factor 2 receptor; Fc part of the bought chimera not given", "experiment": "ECL Multispot (MSD) assay, antigen spotted on plate, 10 nM Fab; blank spot of this row 487"}, "[9]": {"target": "T9, rHuman Notch-1/Fc Chimera, CF (R&D Systems Cat#3647-TK) (human, UniProt P46531 19-526)", "T9 construct": "Bought reagent", "experiment": "MSD multispot ECL, antigen spotted, Fab 0.6 nM; blank spot 226"}, "[10]": {"target": "T10, rHuman CD44/Fc Chimera, CF (R&D Systems Cat#3660-CD) (human, UniProt P16070 21-220)", "T10 construct": "Bought reagent", "experiment": "MSD multispot ECL, antigen spotted, Fab 0.6 nM; blank spot 226"}, "[11]": {"target": "T11, rHuman Erythropoietin R/Fc Chimera, CF (R&D Systems Cat#963-ER) (human, UniProt P19235 25-250)", "T11 construct": "Bought reagent; also called EPO R/Fc; Epo R", "T11 sequence (looked up)": "T1 sequence (looked up)", "experiment": "MSD multispot ECL, antigen spotted, Fab 0.6 nM; blank spot 226"}, "[12]": {"target": "T12, rHuman EGF R/Fc Chimera, CF (R&D Systems Cat#344-ER) (human, UniProt P00533 25-645)", "T12 construct": "Bought reagent; also called epidermal growth factor receptor", "experiment": "MSD multispot ECL, antigen spotted, Fab 0.6 nM; blank spot 226"}, "[13]": {"target": "T13, Recombinant Human DLL4 (R&D Systems Cat#1506-D4/CF) (human, UniProt Q9NR61 27-524)", "T13 construct": "Bought recombinant protein; also called rHuman DLL4; delta-like protein 4", "experiment": "MSD multispot ECL, antigen spotted, Fab 0.6 nM; blank spot 226"}, "[14]": {"target": "T14, rHuman Notch-1/Fc Chimera, CF (R&D Systems Cat#3647-TK) (human, UniProt P46531 19-526)", "T14 construct": "Bought Fc chimera; Fc part of the bought chimera not given", "experiment": "MSD Multispot ECL, antigen spotted on plate, Fab at 15 nM; blank spot 261"}, "[15]": {"target": "T15, rHuman P-Cadherin/Fc Chimera, CF (R&D Systems Cat#861-PC) (human, UniProt P22223 108-654)", "T15 construct": "Bought Fc chimera; Fc part of the bought chimera not given", "experiment": "MSD Multispot ECL, antigen spotted on plate, Fab at 15 nM; blank spot 261"}, "[16]": {"target": "T16, rHuman CD44/Fc Chimera, CF (R&D Systems Cat#3660-CD) (human, UniProt P16070 21-220)", "T16 construct": "Bought Fc chimera; Fc part of the bought chimera not given", "experiment": "MSD Multispot ECL, antigen spotted on plate, Fab at 15 nM; blank spot 261"}, "[17]": {"target": "T17, Recombinant Human DLL4 (R&D Systems Cat#1506-D4/CF) (human, UniProt Q9NR61 27-524)", "T17 construct": "Bought recombinant protein; also called rHuman DLL4; delta-like protein 4", "experiment": "MSD Multispot ECL, antigen spotted on plate, Fab at 15 nM; blank spot 261"}, "[18]": {"target": "T18, rHuman Erythropoietin R/Fc Chimera, CF (R&D Systems Cat#963-ER) (human, UniProt P19235 25-250)", "T18 construct": "Bought Fc chimera; also called EPO R/Fc; Epo R; Fc part of the bought chimera not given", "T18 sequence (looked up)": "T1 sequence (looked up)", "experiment": "MSD Multispot ECL, antigen spotted on plate, Fab at 15 nM; blank spot 261"}, "[19]": {"target": "T19, rHuman Erythropoietin R/Fc Chimera, CF (R&D Systems Cat#963-ER) (human, UniProt P19235 25-250)", "T19 construct": "Bought recombinant protein; also called EPO R; EPO R/Fc; Fc part of the bought chimera not given", "T19 sequence (looked up)": "T1 sequence (looked up)", "experiment": "ECL multispot (MSD) assay, spotted antigen; Fab 20.00 (head prints uM)"}}, "note": "Numbering of substitutions follows the chain as printed. Names and notes keep the numbering of the source.", "data": [{"binder": "B1", "values": [{"measurement": "ECL signal", "setting": "[1]", "result": 326}, {"measurement": "ECL signal", "setting": "[2]", "result": 363}, {"measurement": "ECL signal", "setting": "[3]", "result": 384}, {"measurement": "ECL signal", "setting": "[4]", "result": 453}, {"measurement": "ECL signal", "setting": "[5]", "result": 450}, {"measurement": "ECL signal", "setting": "[6]", "result": 206}, {"measurement": "ECL signal", "setting": "[7]", "result": 379}, {"measurement": "ECL signal", "setting": "[8]", "result": 381}]}, {"binder": "B2", "values": [{"measurement": "ECL signal", "setting": "[9]", "result": 337, "unit": "ECL signal"}, {"measurement": "ECL signal", "setting": "[10]", "result": 238, "unit": "ECL signal"}, {"measurement": "ECL signal", "setting": "[11]", "result": 337, "unit": "ECL signal"}, {"measurement": "ECL signal", "setting": "[12]", "result": 309, "unit": "ECL signal"}, {"measurement": "ECL signal", "setting": "[13]", "result": 508, "unit": "ECL signal"}]}, {"binder": "B3", "values": [{"measurement": "ECL signal", "setting": "[14]", "result": 508}, {"measurement": "ECL signal", "setting": "[15]", "result": 351}, {"measurement": "ECL signal", "setting": "[16]", "result": 454}, {"measurement": "ECL signal", "setting": "[17]", "result": 690}, {"measurement": "ECL signal", "setting": "[18]", "result": 397}]}, {"binder": "B4", "values": [{"measurement": "ECL signal/noise ratio", "setting": "[19]", "result": 1.1}]}]}
